# Data: patent publication US20240238445A1, “INHIBITORS AND USES THEREOF” (NEURACLE SCIENCE CO., LTD., priority 2021, published 2024)
# How the values were obtained:
# [1] = biological target: T1, FAM19A5 protein (Homo sapiens, UniProt Q7Z5A7); assay: ELISA, coated hFc-conjugated ectodomain (100 nM/well), rFAM19A5 titrated 0.005-10 nM
# [2] = biological target: T1, FAM19A5 protein; assay: competitive inhibition ELISA; competitor: coated LRRC4B(453-576, TT/TT)-hFc
# [3] = biological target: binding of FAM19A5 protein to full-length ectodomain of the LRRC4B protein (amino acids 36-576 of SEQ ID NO: 2) (Homo sapiens, UniProt Q7Z5A7); assay: Competitive inhibition assay, plate coated with full-length ectodomain of LRRC4B (amino acids 36-576); settings: increasing concentrations; FAM19A5 5 ng/mL; 100 nM coat
# Chain of binding of FAM19A5 protein to full-length ectodomain of the LRRC4B protein (amino acids 36-576 of SEQ ID NO: 2) (Q7Z5A7 44-132): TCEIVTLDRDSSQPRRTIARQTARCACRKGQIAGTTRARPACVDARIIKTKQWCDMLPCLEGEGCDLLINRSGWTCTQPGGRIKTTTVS
# Method: Next, to further assess the role that the binding domain of the LRRC4B protein has on the interaction between FAM19A5 protein and members of the LRRC4 protein family, a competitive inhibition assay was used to determine whether different LRRC4B deletion constructs from Example 2 could inhibit the binding of FAM19A5 to the full-length ectodomain of the LRRC4B protein (i.e., amino acids 36-576 of SEQ ID NO: 2; SEQ ID NO: 5). Briefly, 100 nM of the full-length ectodomain of the LRRC4B protein was used to coat a plate, and then recombinant FAM19A5 protein (5 ng/mL) was added to the plate in combination with the following LRRC4B deletion constructs (increasing concentrations): (1) LRRC4B (453-576) (i.e., construct #11 in Table 6); (2) LRRC4B (453-576) mutant (comprises alanine substitutions at positions 488 and 489 of SEQ ID NO: 2; SEQ ID NO: 16); (3) LRRC4B (484-576) (i.e., construct #12 in Table 6); (4) LRRC4B (482-576); (5) LRRC4B (482-497); and (6) LRRC4B (498-576). The plates were incubated at 37° C., and then, the amount of FAM19A5 bound to the coated LRRC4B ectodomain protein was measured using HRP-conjugated anti-FAM19A5 (1-65) antibody.
# (§1) As described in Example 3, there appeared to be much similarity in the binding domains of the different members of the LRRC4 family. […] Then, recombinant FAM19A5 protein (5 ng/mL) was added in combination with one of the following: (i) LRRC4B (484-576) protein fragment, (ii) LRRC4B (453-576, AA) protein fragment, and (iii) synthetic FB-20 peptide. The plates were incubated at 37° C., and then, the amount of FAM19A5 protein bound to the coated LRRC4, LRRC4B, or LRRC4C proteins was measured using anti-FAM19A5 (1-65) antibody.
# Next, to assess whether polypeptides comprising the binding domains of LRRC4 or LRRC4C proteins can have similar inhibitory effects on LRRC4B protein binding, the following synthetic peptides were constructed: (1) FBC4-23 (contains the binding domain of the LRRC4 protein, i.e., YSFFTTVTVETTE); and (2) FBC4C-23 (contains the binding domain of the LRRC4C protein, i.e., FSYFSTVTVETME). Then, the ability of the peptides to inhibit the binding of LRRC4 protein family members to FAM19A5 protein was assessed using a competitive inhibition assay. Briefly, plates were coated with 100 nM of either LRRC4B protein fragment #1 (amino acids 36-576 of SEQ ID NO: 2; SEQ ID NO: 5) or LRRC4B protein fragment #2 (amino acids 453-576 of SEQ ID NO: 2; SEQ ID NO: 7). Then, recombinant FAM19A5 protein (5 ng/ml for plates coated with LRRC4B fragment #1; and 1 ng/mL for plates coated with LRRC4B fragment #2) was added to the plates in combination with 20 nM of the FBC4-23, FBC4C-23, and FB-20 peptides. The plates were incubated at 37° C. and then, the amount of FAM19A5 protein bound to the coated LRRC4B protein fragments was assessed using HRP-conjugated anti-FAM19A5 (1-65) antibody.
# Next, to determine the minimal sequence required to inhibit the interaction of FAM19A5 and members of the LRRC4 protein family, ten FB-20 peptide variants were constructed by serially deleting one or more amino acids from the N-terminus or C-terminus of the FB-20 peptide. Then, a competitive inhibition assay was used to assess the ability of the different FB-20 peptide variants to inhibit the interaction between FAM19A5 and LRRC4B protein. Again, plates were coated with 100 nM of either LRRC4B protein fragment #1 (amino acids 36-576 of SEQ ID NO: 2; SEQ ID NO: 5) or LRRC4B protein fragment #2 (amino acids 453-576 of SEQ ID NO: 2; SEQ ID NO: 7). Then, recombinant FAM19A5 protein (5 ng/ml for plates coated with LRRC4B fragment #1; and 1 ng/mL for plates coated with LRRC4B fragment #2) was added to the plates in combination with 20 nM of the different peptides described above. After incubating the plates at 37° C., the amount of FAM19A5 protein bound to the coated LRRC4B protein fragments was assessed using HRP-conjugated anti-FAM19A5 (1-65) antibody. […]
# [4] = biological target: T2, FAM19A5 isoform 2 - LRRC4B protein complex in HEK293 cells (Homo sapiens, UniProt Q7Z5A7); assay: Immunofluorescence: dissociation of FAM19A5 from full-length LRRC4B in HEK293 cells; type: cell-based; settings: HEK293 cells expressing FAM19A5 isoform 2 and LRRC4B, treated 30 minutes
# T2 construct: expressed in transfected cells; host or cells: HEK293
# T2 sequence (Q7Z5A7 1-125 isoform Q7Z5A7-2, one chain of several): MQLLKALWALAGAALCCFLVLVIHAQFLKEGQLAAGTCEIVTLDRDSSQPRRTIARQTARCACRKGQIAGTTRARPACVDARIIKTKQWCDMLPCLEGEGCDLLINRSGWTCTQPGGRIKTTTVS
# Method: Since LRRC4B protein fragments containing the binding domain described in Example 2 (e.g., LRRC4B (453-576); i.e., construct #11 in Table 6) was able to bind to FAM19A5 protein with high affinity, it was next assessed whether such protein fragments could compete with naturally existing LRRC4B protein for binding to FAM19A5 protein, and thereby, dissociate the FAM19A5-LRRC4 protein family complex. Briefly, HEK293 cells expressing both FAM19A5 isoform 2 and LRRC4B protein were treated in vitro for 30 minutes with either LRRC4B (453-576)-hFc or mutant LRRC4B (453-576)-hFc (includes alanine substitutions at positions 488 and 489 of SEQ ID NO: 2; SEQ ID NO: 16) protein fragments. Then, cells were immunostained with anti-FAM19A5 (1-65) and anti-LRRC4B antibodies to determine the expression of FAM19A5 and full-length LRRC4B proteins, respectively. The hFc-fused LRRC4B protein fragments were determined using an anti-hIgG antibody. The nuclei were stained with Hoechst 33342.
# [5] = biological target: binding of FAM19A5 protein to full-length ectodomain of LRRC4 protein (Homo sapiens, UniProt Q7Z5A7); assay: Competitive inhibition assay, plate coated with full-length ectodomain of LRRC4; settings: FAM19A5 5 ng/mL; 100 nM/well coat
# Chain of binding of FAM19A5 protein to full-length ectodomain of LRRC4 protein (Q7Z5A7 44-132): as the sequence (Q7Z5A7 44-132) above
# Method: as §1
# [6] = biological target: binding of FAM19A5 protein to full-length ectodomain of LRRC4C protein (Homo sapiens, UniProt Q7Z5A7); assay: Competitive inhibition assay, plate coated with full-length ectodomain of LRRC4C; settings: FAM19A5 5 ng/mL; 100 nM/well coat
# Chain of binding of FAM19A5 protein to full-length ectodomain of LRRC4C protein (Q7Z5A7 44-132): as above
# Method: as §1
# [7] = biological target: T1, FAM19A5 protein; assay: Co-immunoprecipitation of FLAG-tagged LRRC4 family deletion constructs/fragments with recombinant FAM19A5 in HEK293 cells; type: binding; settings: HEK293 cells expressing FLAG-tagged construct, recombinant FAM19A5 1 μM 30 minutes; IP anti-FLAG, blot anti-FAM19A5 (3-2)
# Method: To understand the interaction between FAM19A5 and members of the LRRC4 protein family, HEK293 cells were modified to express a FLAG-tagged member of the LRRC4 protein family, i.e., LRRC4C protein, LRRC4 protein, or LRRC4B protein. Then, the HEK293 cells or primary cortical neurons were treated with recombinant FAM19A5 protein (1 μM) for 30 minutes, and the binding between FAM19A5 protein and the different members of the LRRC4 protein family was assessed using both co-immunoprecipitation and immunofluorescence assays.
# For the co-immunoprecipitation assay, cell lysates from the different FAM19A5-treated HEK293 cells were collected and immunoprecipitated with an anti-FLAG antibody, anti-FAM19A5 (1-65) antibody, or a human IgG antibody (control). Immunoprecipitated proteins were immunoblotted with anti-FLAG and anti-FAM19A5 (3-2) antibodies. For the immunofluorescence assay, the HEK293 cells treated with the recombinant FAM19A5 protein were immunostained with anti-FAM19A5 (3-2) (to detect FAM19A5 protein expression) and anti-FLAG antibodies (to detect member of the LRRC4 protein family). The primary cortical neurons treated with the recombinant FAM19A5 protein were immunostained with anti-FAM19A5 (3-2) and anti-LRRC4B antibodies. The nuclei were stained with Hoechst33342 (blue).
# To determine the specific motif or domain of the LRRC4B protein that is responsible for the binding to a FAM19A5 protein, various FLAG-tagged LRRC4B deletion constructs were generated (see Table 6 below). HEK293 cells were transfected with the different deletion constructs and then treated with recombinant FAM19A5 protein as described in Example 1. Then, the cell lysates from the different HEK293 cells were immunoprecipitated with the anti-FLAG antibody. The immunoprecipitated proteins were immunoblotted with anti-FLAG and anti-FAM19A5 (3-2) antibodies.
# As described in Example 2, all members of the LRRC4 protein family were capable of binding to FAM19A5 protein to varying degrees. Therefore, to compare the bindings domains, the amino acid sequences of the LRRC4B, LRRC4, and LRRC4C proteins were aligned. […] Therefore, to assess whether the corresponding positions of LRRC4 and LRRC4C were important in the binding of these proteins to FAM19A5 protein, cDNAs encoding either (i) LRRC4C protein fragment (amino acids 354-527 of SEQ ID NO: 3; SEQ ID NO: 66) or (ii) LRRC4 protein fragment (amino acids 353-527 of SEQ ID NO: 1; SEQ ID NO: 67) were constructed (see Table 7). HEK293 cells were transfected to express either of the protein fragments and then treated with recombinant FAM19A5 protein as described in Example 1. Then, the cell lysates from the different HEK293 cells were immunoprecipitated with the anti-FLAG antibody. The immunoprecipitated proteins were immunoblotted with anti-FLAG and anti-FAM19A5 (3-2) antibodies.
# Target sequence in this assay (Q7Z5A7 44-132): as above
molecule,measurement,setting,value
"full-length ectodomain of LRRC4B protein (amino acids 36-576 of SEQ ID NO: 2) conjugated to human Fc (Fc fusion, not shown: a dimerising Fc or GST) AGGGGVAVTSAAGGGSPPATSCPVACSCSNQASRVICTRRDLAEVPASIPVNTRYLNLQENGIQVIRTDTFKHLRHLEILQLSKNLVRKIEVGAFNGLPSLNTLELFDNRLTTVPTQAFEYLSKLRELWLRNNPIESIPSYAFNRVPSLRRLDLGELKRLEYISEAAFEGLVNLRYLNLGMCNLKDIPNLTALVRLEELELSGNRLDLIRPGSFQGLTSLRKLWLMHAQVATIERNAFDDLKSLEELNLSHNNLMSLPHDLFTPLHRLERVHLNHNPWHCNCDVLWLSWWLKETVPSNTTCCARCHAPAGLKGRYIGELDQSHFTCYAPVIVEPPTDLNVTEGMAAELKCRTGTSMTSVNWLTPNGTLMTHGSYRVRISVLHDGTLNFTNVTVQDTGQYTCMVTNSAGNTTASATLNVSAVDPVAAGGTGSGGGGPGGSGGVGGGSGGYTYFTTVTVETLETQPGEEALQPRGTEKEPPGPTTDGVWGGGRPGDAAGPASSSTTAPAPRSSRPTEKAFTVPITDVTENALKDLDDVMKTTK",EC50,[1],0.64 nM
GYTYFTTVTVEWYETQPGEEA [FB-21 (W12Y13)],"fold increase in the ability to dissociate the LRRC4B-FAM19A5 complex, compared with the wild-type FB-21",[2],2.9 fold
"LRRC4B mutant: LRRC4B (453-576) with alanine substitutions at positions 488 and 489 of SEQ ID NO: 2 (protein, human Fc) VSAVDPVAAGGTGSGGGGPGGSGGVGGGSGGYTYFAAVTVETLETQPGEEALQPRGTEKEPPGPTTDGVWGGGRPGDAAGPASSSTTAPAPRSSRPTEKAFTVPITDVTENALKDLDDVMKTTK",inhibition of FAM19A5 binding to coated full-length LRRC4B ectodomain protein (in words),[3],much inferior in their ability to inhibit the interaction
same,dissociation of FAM19A5 from full-length LRRC4B protein,[4],remained largely bound to the full-length LRRC4B protein
same,inhibition of FAM19A5 binding to coated LRRC4 protein (in words),[5],minimal effect
same,inhibition of FAM19A5 binding to coated LRRC4C protein (in words),[6],minimal effect
"full-length ectodomain of LRRC4 protein (amino acid residues 39-527 of SEQ ID NO: 1) conjugated to human Fc (Fc fusion, not shown: a dimerising Fc or GST) ASAGPQNCPSVCSCSNQFSKVVCTRRGLSEVPQGIPSNTRYLNLMENNIQMIQADTFRHLHHLEVLQLGRNSIRQIEVGAFNGLASLNTLELFDNWLTVIPSGAFEYLSKLRELWLRNNPIESIPSYAFNRVPSLMRLDLGELKKLEYISEGAFEGLFNLKYLNLGMCNIKDMPNLTPLVGLEELEMSGNHFPEIRPGSFHGLSSLKKLWVMNSQVSLIERNAFDGLASLVELNLAHNNLSSLPHDLFTPLRYLVELHLHHNPWNCDCDILWLAWWLREYIPTNSTCCGRCHAPMHMRGRYLVEVDQASFQCSAPFIMDAPRDLNISEGRMAELKCRTPPMSSVKWLLPNGTVLSHASRHPRISVLNDGTLNFSHVLLSDTGVYTCMVTNVAGNSNASAYLNVSTAELNTSNYSFFTTVTVETTEISPEDTTRKYKPVPTTSTGYQPAYTTSTTVLIQTTRVPKQVAVPATDTTDKMQTSLDEVMKTTK",EC50,[1],0.48 nM
"LRRC4B (484-576): LRRC4B ectodomain fragment, amino acids 484-576 of SEQ ID NO: 2 (protein) YTYFTTVTVETLETQPGEEALQPRGTEKEPPGPTTDGVWGGGRPGDAAGPASSSTTAPAPRSSRPTEKAFTVPITDVTENALKDLDDVMKTTK",inhibition of FAM19A5 binding to coated full-length LRRC4B ectodomain protein (in words),[3],also able to inhibit the interaction
same,binding to FAM19A5 protein (co-immunoprecipitation),[7],able to bind to the FAM19A5 protein with varying degree
same,inhibition of FAM19A5 binding to coated LRRC4 protein (in words),[5],able to inhibit FAM19A5 protein from binding
same,inhibition of FAM19A5 binding to coated LRRC4C protein (in words),[6],able to inhibit FAM19A5 protein from binding
